{"source": "patent US6495137", "key": {"[1]": {"molecular_target": "bovine submaxillary mucin (BSM), TAG-72-positive (bovine)", "experiment": "relative affinity constant, competition RIA on BSM, Scatchard analysis"}, "[2]": {"molecular_target": "bovine submaxillary mucin (BSM), TAG-72-positive (bovine)", "experiment": "radiolabeled antibody bound to BSM beads"}, "[3]": {"molecular_target": "bovine submaxillary mucin (BSM), TAG-72-positive (bovine)", "experiment": "competition RIA, 125I-labeled nCC49 as competitor, BSM as target antigen", "parameters": "unit not given here"}}, "note": "Values joined by “and” are separate entries in the source; they are usually repeats but may differ in a detail not shown here. Equal values may be shown once.", "data": [{"binder": "HuCC49* humanized CC49 monoclonal antibody (antibody, V domains shown) VH: QVQLVQSGAEVVKPGASVKISCKASGYTFTDHAIHWVKQNPGQRLEWIGYFSPGNDDFKYNERFKGKATLTADTSASTAYVELSSLRSEDTAVYFCTRSLNMAYWGQGTLVTVSS VL: DIVMSQSPDSLAVSLGERVTLNCKSSQSLLYSGNQKNYLAWYQQKPGQSPKLLIYWASARESGVPDRFSGSGSGTDFTLTISSVQAEDVAVYYCQQYYSYPLTFGAGTKLELK", "values": [{"measurement": "Ka", "setting": "[1]", "result": "6e+07", "unit": "M⁻¹"}, {"measurement": "percent bound", "setting": "[2]", "result": "> 85% and 85%"}, {"measurement": "amount required for 50% competition", "setting": "[3]", "result": 45}]}]}
